Assay results taken from doi:10.1101/2024.11.26.625568.

Columns and labels:
dynein [1] = molecular target: dynein (UniProt Q14204)
dynein [2] = molecular target: dynein (UniProt Q14204); remark: listed apart in the source
dynein [3] = molecular target: dynein (UniProt Q14204); remark: listed apart in the source

| Substance | run frequency of DDN complexes, against wild-type NuMA FL (fold increase) (dynein [1]) | also measured |
| --- | --- | --- |
| NuMA FL S1969D (from UniProt Q14980 1-2115) (natural protein) | < 4 | – |
| NuMA FL T2055D (from UniProt Q14980 1-2115) (natural protein) | < 4 | – |
| Full-length NuMA (from UniProt Q14980 1-2115) (natural protein) | – | frequency of processive runs of DDN complexes, against NuMA 1-705 under the same conditions (fold less frequent) (dynein [2]): 10 |
| NuMA 1-1699 (from UniProt Q14980 1-1699) (domain or fragment) | – | run frequency of DDN complexes in single-molecule motility assays, against the shorter NuMA fragments (dynein [3]): 5 fold lower |
